Experimental data from patent publication US20160024487.

Experiments:
[1] = molecular target: T1, Lys(Dnp)-ATNATAAPRIVGG-Lys(Abz)
T1 chain: KATNATAAPRIVGGK

[2] = molecular target: T2, Lys(Dnp)-ATNATFQPRIVGG-Lys(Abz)
T2 chain: KATNATFQPRIVGGK

[3] = molecular target: T3, Lys(Dnp)-ATNATFRPRIVGG-Lys(Abz)
T3 chain: KATNATFRPRIVGGK

[4] = molecular target: T4, Lys(Dnp)-ATNATIFPRIVGG-Lys(Abz)
T4 chain: KATNATIFPRIVGGK

[5] = molecular target: T5, Lys(Dnp)-ATNATIMPRIVGG-Lys(Abz)
T5 chain: KATNATIMPRIVGGK

[6] = molecular target: T6, Lys(Dnp)-ATNATIWPRIVGG-Lys(Abz)
T6 chain: KATNATIWPRIVGGK

[7] = molecular target: T7, Lys(Dnp)-ATNATLIPRIVGG-Lys(Abz)
T7 chain: KATNATLIPRIVGGK

[8] = molecular target: T8, Lys(Dnp)-ATNATLKPRIVGG-Lys(Abz)
T8 chain: KATNATLKPRIVGGK

[9] = molecular target: T9, Lys(Dnp)-ATNATLWPRIVGG-Lys(Abz)
T9 chain: KATNATLWPRIVGGK

[10] = molecular target: T10, Lys(Dnp)-ATNATMFPRIVGG-Lys(Abz)
T10 chain: KATNATMFPRIVGGK

[11] = molecular target: T11, Lys(Dnp)-ATNATMHPRIVGG-Lys(Abz)
T11 chain: KATNATMHPRIVGGK

[12] = molecular target: T12, Lys(Dnp)-ATNATMIPRIVGG-Lys(Abz)
T12 chain: KATNATMIPRIVGGK

[13] = molecular target: T13, Lys(Dnp)-ATNATMTPRIVGG-Lys(Abz)
T13 chain: KATNATMTPRIVGGK

[14] = molecular target: T14, Lys(Dnp)-ATNATVVPRIVGG-Lys(Abz)
T14 chain: KATNATVVPRIVGGK

[15] = molecular target: T15, Lys(Dnp)-ATNATFEPRIVGG-Lys(Abz)
T15 chain: KATNATFEPRIVGGK

[16] = molecular target: T16, Lys(Dnp)-ATNATFLPRIVGG-Lys(Abz)
T16 chain: KATNATFLPRIVGGK

[17] = molecular target: T17, Lys(Dnp)-ATNATFSPRIVGG-Lys(Abz)
T17 chain: KATNATFSPRIVGGK

[18] = molecular target: T18, Lys(Dnp)-ATNATHIPRIVGG-Lys(Abz)
T18 chain: KATNATHIPRIVGGK

[19] = molecular target: T19, Lys(Dnp)-ATNATIPPRIVGG-Lys(Abz)
T19 chain: KATNATIPPRIVGGK

[20] = molecular target: T20, Lys(Dnp)-ATNATISPRIVGG-Lys(Abz)
T20 chain: KATNATISPRIVGGK

[21] = molecular target: T21, Lys(Dnp)-ATNATKGPRIVGG-Lys(Abz)
T21 chain: KATNATKGPRIVGGK

[22] = molecular target: T22, Lys(Dnp)-ATNATKMPRIVGG-Lys(Abz)
T22 chain: KATNATKMPRIVGGK

[23] = molecular target: T23, Lys(Dnp)-ATNATKYPRIVGG-Lys(Abz)
T23 chain: KATNATKYPRIVGGK

[24] = molecular target: T24, Lys(Dnp)-ATNATLLPRIVGG-Lys(Abz)
T24 chain: KATNATLLPRIVGGK

[25] = molecular target: T25, Lys(Dnp)-ATNATNLPRIVGG-Lys(Abz)
T25 chain: KATNATNLPRIVGGK

[26] = molecular target: T26, Lys(Dnp)-ATNATPHPRIVGG-Lys(Abz)
T26 chain: KATNATPHPRIVGGK

[27] = molecular target: T27, Lys(Dnp)-ATNATQHPRIVGG-Lys(Abz)
T27 chain: KATNATQHPRIVGGK

[28] = molecular target: T28, Lys(Dnp)-ATNATRDPRIVGG-Lys(Abz)
T28 chain: KATNATRDPRIVGGK

[29] = molecular target: T29, Lys(Dnp)-ATNATSEPRIVGG-Lys(Abz)
T29 chain: KATNATSEPRIVGGK

[30] = molecular target: T30, Lys(Dnp)-ATNATSKPRIVGG-Lys(Abz)
T30 chain: KATNATSKPRIVGGK

[31] = molecular target: T31, Lys(Dnp)-ATNATSLPRIVGG-Lys(Abz)
T31 chain: KATNATSLPRIVGGK

[32] = molecular target: T32, Lys(Dnp)-ATNATSYPRIVGG-Lys(Abz)
T32 chain: KATNATSYPRIVGGK

[33] = molecular target: T33, Lys(Dnp)-ATNATTKPRIVGG-Lys(Abz)
T33 chain: KATNATTKPRIVGGK

[34] = molecular target: T34, Lys(Dnp)-ATNATTPPRIVGG-Lys(Abz)
T34 chain: KATNATTPPRIVGGK

[35] = molecular target: T35, Lys(Dnp)-ATNATVAPRIVGG-Lys(Abz)
T35 chain: KATNATVAPRIVGGK

[36] = molecular target: T36, Lys(Dnp)-ATNATVGPRIVGG-Lys(Abz)
T36 chain: KATNATVGPRIVGGK

[37] = molecular target: T37, Lys(Dnp)-ATNATVPPRIVGG-Lys(Abz)
T37 chain: KATNATVPPRIVGGK

[38] = molecular target: T38, Lys(Dnp)-ATNATWEPRIVGG-Lys(Abz)
T38 chain: KATNATWEPRIVGGK

[39] = molecular target: T39, Lys(Dnp)-ATNATWFPRIVGG-Lys(Abz)
T39 chain: KATNATWFPRIVGGK

[40] = molecular target: T40, Lys(Dnp)-ATNATWYPRIVGG-Lys(Abz)
T40 chain: KATNATWYPRIVGGK

[41] = molecular target: T41, Lys(Dnp)-ATNATYRPRIVGG-Lys(Abz)
T41 chain: KATNATYRPRIVGGK

B1: Human plasma purified Factor Xa (protein)
chain 1: ANSFLEEMKKGHLERECMEETCSYEEAREVFEDSDKTNEFWNKYKDGDQCETSPCQNQGKCKDGLGEYTCTCLEGFEGKNCELFTRKLCSLDNGDCDQFCHEEQNSVVCSCARGYTLADNGKACIPTGPYPCGKQTLER
chain 2: IVGGQECKDGECPWQALLINEENEGFCGGTILSEFYILTAAHCLYQAKRFKVRVGDRNTEQEEGGEAVHEVEVVIKHNRFTKETYDFDIAVLRLKTPITFRMNVAPACLPERDWAESTLMTQKTGIVSGFGRTHEKGRQSTRLKMLEVPYVDRNSCKLSSSFIITQNMFCAGYDTKQEDACQGDSGGPHVTRFKDTYFVTGIVSWGEGCARKGKYGIYTKVTAFLKWIDRSMKTRGLPKAKSHAPEVITSSPLK
- FXa kcat/KM [1]: 45 M⁻¹ s⁻¹
- FXa kcat/KM [2]: 260 M⁻¹ s⁻¹
- FXa kcat/KM [3]: 430 M⁻¹ s⁻¹
- FXa kcat/KM [4]: 130 M⁻¹ s⁻¹
- FXa kcat/KM [5]: 2100 M⁻¹ s⁻¹
- FXa kcat/KM [6]: 1500 M⁻¹ s⁻¹
- FXa kcat/KM [7]: 420 M⁻¹ s⁻¹
- FXa kcat/KM [8]: 72 M⁻¹ s⁻¹
- FXa kcat/KM [9]: 1000 M⁻¹ s⁻¹
- FXa kcat/KM [10]: 55 M⁻¹ s⁻¹
- FXa kcat/KM [11]: 290 M⁻¹ s⁻¹
- FXa kcat/KM [12]: 220 M⁻¹ s⁻¹
- FXa kcat/KM [13]: 97 M⁻¹ s⁻¹
- FXa kcat/KM [14]: 54 M⁻¹ s⁻¹

B2: Human plasma purified Factor Xa (Molecular Innovations, Inc) (protein)
chain 1: B1 chain 1
chain 2: B1 chain 2
- FXa kcat/KM [15]: 140 M⁻¹ s⁻¹
- FXa kcat/KM [16]: 530 M⁻¹ s⁻¹
- FXa kcat/KM [17]: 190 M⁻¹ s⁻¹
- FXa kcat/KM [18]: 78 M⁻¹ s⁻¹
- FXa kcat/KM [19]: 8.5 M⁻¹ s⁻¹
- FXa kcat/KM [20]: 610 M⁻¹ s⁻¹
- FXa kcat/KM [21]: 33 M⁻¹ s⁻¹
- FXa kcat/KM [22]: 140 M⁻¹ s⁻¹
- FXa kcat/KM [23]: 38 M⁻¹ s⁻¹
- FXa kcat/KM [24]: 590 M⁻¹ s⁻¹
- FXa kcat/KM [25]: 110 M⁻¹ s⁻¹
- FXa kcat/KM [26]: 360 M⁻¹ s⁻¹
- FXa kcat/KM [27]: 550 M⁻¹ s⁻¹
- FXa kcat/KM [28]: 1400 M⁻¹ s⁻¹
- FXa kcat/KM [29]: 22 M⁻¹ s⁻¹
- FXa kcat/KM [30]: 13 M⁻¹ s⁻¹
- FXa kcat/KM [31]: 82 M⁻¹ s⁻¹
- FXa kcat/KM [32]: 13 M⁻¹ s⁻¹
- FXa kcat/KM [33]: 14 M⁻¹ s⁻¹
- FXa kcat/KM [34]: 72 M⁻¹ s⁻¹
- FXa kcat/KM [35]: 62 M⁻¹ s⁻¹
- FXa kcat/KM [36]: 49 M⁻¹ s⁻¹
- FXa kcat/KM [37]: 6.3 M⁻¹ s⁻¹
- FXa kcat/KM [38]: 24 M⁻¹ s⁻¹
- FXa kcat/KM [39]: 49 M⁻¹ s⁻¹
- FXa kcat/KM [40]: 60 M⁻¹ s⁻¹
- FXa kcat/KM [41]: 610 M⁻¹ s⁻¹
